Source: US20240358834A1 (University of Pennsylvania, published 2024)
Each block holds one binder with its values, some of them ahead of it.

Target: T1, human CD19 protein with a biotinylated AviTag (Acrobiosystems) (human, UniProt P15391 20-291, biotinylated AviTag)
T1 construct: Captured on streptavidin-coated microplate wells; also called biotinylated-AviTag-CD19; hCD19; not shown: AviTag
T1 sequence (looked up): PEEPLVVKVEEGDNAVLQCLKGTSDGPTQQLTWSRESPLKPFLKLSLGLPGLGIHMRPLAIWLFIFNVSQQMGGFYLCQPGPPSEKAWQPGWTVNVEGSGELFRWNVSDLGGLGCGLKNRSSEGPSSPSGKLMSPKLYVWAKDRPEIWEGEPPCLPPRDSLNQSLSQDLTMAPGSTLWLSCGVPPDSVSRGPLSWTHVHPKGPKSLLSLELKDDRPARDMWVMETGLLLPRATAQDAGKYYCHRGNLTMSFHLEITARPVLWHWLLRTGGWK
Experiment: phage ELISA, biotinylated AviTag CD19 on streptavidin wells; signal ratio to FMC63 standard
Text: To identify unique human CD19-binding monoclonal scFv from the panned libraries, individual phage antibody clones were expanded, assessed for binding to CD19 by ELISA, and subjected to nucleotide sequencing to identify those clones that were unique. A total of 84 scFvs were randomly selected from the panned libraries (70 from P3 and 14 from P4).

B3: scFv 5 (scFv)
scFv: QPVLTQPPSVSGSLGQRVTISCSGSTNTIGVVGANWYQQLPGKSPKLLVYSDGVRPSGVPDRFSGSRSANSDTLTITGLQAEDEADYYCQSFDSTHNAIVFGGGTHLTVLGGGSSRSSSSGGGGSGGGGEVQLVETGGDLVKPAGSLRLSCAASGFPFSGYSMTWVRQAPEKGLQLVAGINSDGSHTYYTDDVKGRFTISRDNTKYILYLQMNSLRAEDTAMYYCGSHSWGNFHYWGQGTLVTVSSESPSPPNLTSGQAGQHHHHHHGAYPYDVPDYAS
notes: Canine scFv (VL-linker-VH); also called scFv_05; P3-14
ELISA hCD19 (ratio FMC63): 0.48 ratio to FMC63

B5: scFv 7 (scFv)
scFv: SYELTQPPSMSAALGQRVTISCTGSNTNIGSGYDVQWYQQVPGKSPTPLIYGNTNRPSGVPVRFSGSKSGNTATLTITGIQAEDEADYYCQSYDDNFDGHHVFGSGTQLTVLGGGSSRSSSSGGGGSGGGGEVQLVESGGDLVKPAGSLRLSCVASGFTFSNYGMNWVRQAPGKGLQWVAGINSGGSTTTYADVVKGRFTISRDNAKNTLYLQMNSLGAEDTAVYYCARVDYSSSWLVDYWGQGTLVTVSSASTTAPSVTSGQAGQHHHHHHGAYPYDVPDYAS
notes: Canine scFv (VL-linker-VH); also called scFv_07; P3-47
ELISA hCD19 (ratio FMC63): 0.83 ratio to FMC63

B6: scFv 8 (scFv)
scFv: QSVLTQPASVSGSLGQKVTISCTGSRSNIGANYVGWYQQVPGIGPRTVIFGYNYRPSGVPDRFSSSKSGNSATLTISGLQAEDEAEYYCSSWDDSLRGTVFGSGTQLTVLGGGSSRSSSSGDGGSGGGGEVQLVESGGDLVKPGESLRLSCVASGFTFSSYGMSWVRQSPGKGLQWVADISYGGGTYYADAVKGRFTISRDNARNTVYLQMNSLRAEDTAVYYCASQWGDWGHFEYWGQGTLVTVSSASTTAPSVTSGQAGQHHHHHHGAYPYDVPDYAS
notes: Canine scFv (VL-linker-VH); also called scFv_08; P3-16
ELISA hCD19 (ratio FMC63): 0.41 ratio to FMC63

Continued, values first:

ELISA hCD19 (ratio FMC63): 0.71 ratio to FMC63
B1: scFv 9 (scFv)
scFv: QPVLTQPPSVSAALGQRVTLSCTGSKTNIGSGYDVQWYQQFPGKSPKTIIYGNSNRFSGVPARFSGSKSGSIATLTITGIQAEDEADYYCQSFDDNVDGYVFGSGTQLTILGGGSSRSSSSGGGGSGGGGEVQLVESGGDLVKPGGSLRLSCVASGFTFSSDSIHWVRQAPGKGLQWVAYINSGGSTTYYADAVKGRFTISRDNARNTVYLKMNSLRAEDTAVYYCAKDSGFGSWYLESWGQGTLVTVSPASTTAPSVTSGQAGQHHHHHHGAYPYDVPDYAS
notes: Canine scFv (VL-linker-VH); also called scFv_09; P3-41

ELISA hCD19 (ratio FMC63): 0.14 ratio to FMC63
B2: scFv 42 (scFv)
scFv: QSVLTQPTSVSGSLGQRVTISCSGSTNDIGIIGAAWYQQLPGKAPKLLLYSNKNRPSGVPDRFSGSNSGISATLTITGLQAEDEADYYCQSVDPALHTYVFGSGTQLTILGGGSSRSSSSGGGGSGGGGEVQLVEIGGDLVKPEGSLRLSCVVSGFTFSGYDMNWVRQAPGKGLQWVAYISSDGRRTVYTDAVKGRFTISRDNAKNTLYLQMNSLKSEDTAVYYCVKGGWLDFWGQGTLVTVSSESPSPPNLTSGQAGQHHHHHHGAYPYDVPDYAS
notes: Canine scFv (VL-linker-VH); also called P3-13

ELISA hCD19 (ratio FMC63): 0.57 ratio to FMC63
B4: scFv 43 (scFv)
scFv: DIVMTQNPLSLAVTPGELATISCRASQSLLHSDGKSYLNWYLQKPGQTPRPLIYEASRRFSGVSDRFNGSGSGTDFTLKISRVEAEDVGVYYCQQGLHFPPTFGAGTKVELKGGSSRSSSSGGGGSGGGGEVQLVESGGDLVKPGGSLRLSCAASGFTFTDYDMSWVRQAPGKGLQWVAAISYDGSSTYYTDAVKGRFTISRDNARNTLYLQMSSLRAEDTAMYYCVVSNMNLWGHGTSVFVSSASTTAPSVTSGQAGQHHHHHHGAYPYDVPDYAS
notes: Canine scFv (VL-linker-VH); also called P3-02; P3-19
